Source: patent US20240228562A1, “NOVEL LIPOCALIN MUTEINS SPECIFIC FOR CONNECTIVE TISSUE GROWTH FACTOR (CTGF)” (PIERIS PHARMACEUTICALS GMBH, priority 2021, published 2024)

Legend:
[1] = target: T1, huWISP-1 (Homo sapiens, UniProt O95388); test: Specificity ELISA (CCN proteins), huWISP-1; format: binding; conditions: coated 1 μg/ml; assessed when human CTGF signal approached saturation
T1 sequence (O95388 23-367): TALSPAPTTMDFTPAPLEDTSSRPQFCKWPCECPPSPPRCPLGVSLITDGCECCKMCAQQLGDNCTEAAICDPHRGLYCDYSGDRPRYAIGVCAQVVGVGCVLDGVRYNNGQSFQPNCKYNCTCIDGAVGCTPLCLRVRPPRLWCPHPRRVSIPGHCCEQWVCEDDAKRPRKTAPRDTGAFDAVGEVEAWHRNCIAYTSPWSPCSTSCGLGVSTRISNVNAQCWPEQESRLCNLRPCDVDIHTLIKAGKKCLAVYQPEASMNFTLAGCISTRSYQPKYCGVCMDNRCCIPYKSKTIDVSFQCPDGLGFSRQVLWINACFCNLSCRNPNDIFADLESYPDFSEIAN
Method: (§1) Binding of muteins to closely related proteins of CTGF was tested by an ELISA assay. In detail, a 384-well plate suitable for fluorescence measurements (Greiner FLUOTRAC™ 600, black flat bottom, high-binding) was coated with 20 μl of human CTGF or the other members of the CCN protein family at a concentration of 1 μg/ml in PBS over night at 4° C. After washing with PBS with 0.05% Tween 20, wells were blocked with 100 μl blocking buffer containing 0.1% Tween 20 and 2% BSA (PBS-T/BSA) for 1 h at room temperature. 20 μl of serially diluted muteins starting at 1000 nM were incubated in PBS-T/BSA for 1 h at room temperature (RT).
(§2) The residual supernatants were discarded and 20 μl HRP-labeled anti-NGAL or anti-Strep-Tag antibody was added at a predetermined optimal concentration in PBS-T/BSA and incubated for 1 h at RT. After washing, 20 μl fluorogenic HRP substrate (QuantaBlu, Thermo) was added to each well, and the reaction was allowed to proceed for 2 to 60 minutes. The fluorescence intensity of every well on the plate was read using a fluorescence microplate reader (Tecan). When the signal for human CTGF approached saturation, the cross reactivity to the other proteins was assessed.

[2] = target: T2, huCYR61 (Homo sapiens, UniProt O00622); test: Specificity ELISA (CCN proteins), huCYR61; format: binding; conditions: coated 1 μg/ml; assessed when human CTGF signal approached saturation
T2 sequence (O00622 25-381): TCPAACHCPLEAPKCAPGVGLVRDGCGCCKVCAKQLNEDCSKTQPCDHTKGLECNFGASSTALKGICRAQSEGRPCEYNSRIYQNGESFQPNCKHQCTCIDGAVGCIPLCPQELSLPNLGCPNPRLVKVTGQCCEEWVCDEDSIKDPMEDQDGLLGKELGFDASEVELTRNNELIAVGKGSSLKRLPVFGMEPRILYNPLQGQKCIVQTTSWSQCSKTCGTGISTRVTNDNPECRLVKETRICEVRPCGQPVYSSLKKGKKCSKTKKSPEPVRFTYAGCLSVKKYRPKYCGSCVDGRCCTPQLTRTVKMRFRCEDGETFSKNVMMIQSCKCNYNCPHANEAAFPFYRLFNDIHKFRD
Method: as §1, §2

[3] = Thermal stability assessment by nanoDSC; format: physicochemical; conditions: 1 mg/mL in PBS, scan 25-100° C. at 1° C./min; for TM: major transition
In short: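 CTGF-specific lipocalin muteins at 1 mg/mL in PBS scanned from 25 to 100° C at 1° C/min by capillary nano-DSC. Where several transitions occur, the Tm of the major unfolding event is reported, along with onset temperature. Some muteins were expressed in E. coli, others in CHO cells.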

[4] = target: T3, huWISP-2 (Homo sapiens, UniProt O76076); test: Specificity ELISA (CCN proteins), huWISP-2; format: binding; conditions: coated 1 μg/ml; assessed when human CTGF signal approached saturation
T3 sequence (O76076 24-250): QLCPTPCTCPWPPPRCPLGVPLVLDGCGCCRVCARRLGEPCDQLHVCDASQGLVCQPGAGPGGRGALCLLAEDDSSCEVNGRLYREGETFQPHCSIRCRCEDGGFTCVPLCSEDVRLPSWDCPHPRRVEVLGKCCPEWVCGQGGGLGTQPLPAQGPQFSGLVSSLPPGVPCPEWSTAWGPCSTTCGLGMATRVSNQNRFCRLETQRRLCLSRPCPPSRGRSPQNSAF
Method: as §1, §2

[5] = target: T4, huNOV (Homo sapiens, UniProt P48745); test: Specificity ELISA (CCN proteins), huNOV; format: binding; conditions: coated 1 μg/ml; assessed when human CTGF signal approached saturation
T4 sequence (P48745 32-357): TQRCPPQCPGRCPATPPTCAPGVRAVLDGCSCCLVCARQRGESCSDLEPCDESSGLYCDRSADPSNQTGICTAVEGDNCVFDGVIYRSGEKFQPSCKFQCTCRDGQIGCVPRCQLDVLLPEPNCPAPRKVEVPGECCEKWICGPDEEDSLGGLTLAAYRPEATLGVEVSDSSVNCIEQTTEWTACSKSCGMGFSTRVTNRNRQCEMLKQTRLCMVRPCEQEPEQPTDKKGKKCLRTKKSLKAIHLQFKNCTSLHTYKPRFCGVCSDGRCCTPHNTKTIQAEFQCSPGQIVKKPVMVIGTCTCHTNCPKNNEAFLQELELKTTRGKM
Method: as §1, §2

[6] = target: T5, huWISP-3 (Homo sapiens, UniProt O95389); test: Specificity ELISA (CCN proteins), huWISP-3; format: binding; conditions: coated 1 μg/ml; assessed when human CTGF signal approached saturation
T5 sequence (O95389 24-354): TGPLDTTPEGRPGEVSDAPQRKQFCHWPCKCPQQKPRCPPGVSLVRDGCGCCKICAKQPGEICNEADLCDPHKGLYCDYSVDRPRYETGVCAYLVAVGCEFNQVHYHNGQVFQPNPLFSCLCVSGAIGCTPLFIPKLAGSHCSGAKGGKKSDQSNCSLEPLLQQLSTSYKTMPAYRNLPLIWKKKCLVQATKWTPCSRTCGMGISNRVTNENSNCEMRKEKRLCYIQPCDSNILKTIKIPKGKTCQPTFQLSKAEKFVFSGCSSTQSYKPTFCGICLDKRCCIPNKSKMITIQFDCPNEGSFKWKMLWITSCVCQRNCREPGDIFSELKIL
Method: as §1, §2

[7] = target: T6, CTGF (Homo sapiens, UniProt P29279); test: Specificity ELISA (CCN proteins), human CTGF; format: binding; conditions: coated 1 μg/ml, muteins from 1000 nM
T6 sequence (P29279 27-349): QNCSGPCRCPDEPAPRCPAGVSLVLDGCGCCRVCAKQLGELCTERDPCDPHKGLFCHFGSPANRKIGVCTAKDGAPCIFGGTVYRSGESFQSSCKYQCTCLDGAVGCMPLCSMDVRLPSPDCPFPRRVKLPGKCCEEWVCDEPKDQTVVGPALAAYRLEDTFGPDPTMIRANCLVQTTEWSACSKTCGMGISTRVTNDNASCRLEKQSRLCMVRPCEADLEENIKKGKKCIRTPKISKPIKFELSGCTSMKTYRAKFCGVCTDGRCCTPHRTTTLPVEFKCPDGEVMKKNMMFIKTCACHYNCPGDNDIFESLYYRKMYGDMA
Method: as §1, §2

[8] = target: T7, Rat CTGF (Rattus norvegicus, UniProt Q9R1E9); test: SPR binding kinetics and affinity, rat CTGF; conditions: 25° C., 1:1 binding model
T7 construct: purchased R&D Systems
T7 sequence (Q9R1E9 25-347): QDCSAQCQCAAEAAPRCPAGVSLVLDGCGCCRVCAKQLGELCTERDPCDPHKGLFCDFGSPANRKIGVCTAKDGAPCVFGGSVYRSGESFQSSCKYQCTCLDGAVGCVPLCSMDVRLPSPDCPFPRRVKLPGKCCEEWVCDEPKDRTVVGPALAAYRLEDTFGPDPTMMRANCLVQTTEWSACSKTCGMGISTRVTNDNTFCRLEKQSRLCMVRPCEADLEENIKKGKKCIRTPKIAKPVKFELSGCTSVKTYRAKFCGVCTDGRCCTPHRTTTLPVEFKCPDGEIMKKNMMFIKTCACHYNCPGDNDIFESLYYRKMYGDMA
Method: (§3) Surface plasmon resonance (SPR) was used to measure binding kinetics and affinity of the representative lipocalin muteins disclosed herein.
(§4) The binding of exemplary lipocalin muteins to human (Creative Biomart), cynomolgus, rat (R&D Systems) and mouse CTGF (Abbexa) was determined by SPR using a Biacore instrument (Cytiva, formerly GE Healthcare). Some targets were fused to a human IgG1 Fc tag, and captured via the anti-human IgG antibody kit, others were directly immobilized.
(§5) For some measurements, human CTGF with a human IgG1 Fc Tag or rat or murine CTGF without a tag were directly immobilized to a CM5 Chip. The carboxyl groups on the chip were activated using 1-ethyl-3-(3-dimethylaminopropyl)-carbodiimide (EDC) and N-hydroxysuccinimide (NHS). Subsequently, the targets at a concentration of 3-5 μg/mL in 10 mM sodium acetate (pH) 4.5 were applied at a flow rate of 10 μL/min until an immobilization level of 300-1100 resonance units was achieved. Residual non-reacted NHS-esters were blocked by passing a solution of 1 M ethanolamine across the surface. The reference channel was activated/deactivated. For the capture setting, targets with an IgG Fc Tag at 0.25-2.5 μg/mL in HBS-EP+ buffer were captured by the anti-human IgG-Fc antibody at the chip surface for 180 s at a flow rate of 10 μL/min.
(§6) The binding assay was carried out with a contact time of 180 s, a dissociation time of 900-3600 s and a flow rate of 30 μL/min. All measurements were performed at 25° C. […] For the directly immobilized targets, the same regeneration conditions were used. Prior to the protein measurements, three startup cycles were performed for conditioning purposes. Data were evaluated with Biacore Evaluation software. Double referencing was used and the 1:1 binding model was used to fit the raw data.
(§7) The values determined for kon, koff and the resulting equilibrium dissociation constant (KD) for exemplary lipocalin muteins are summarized in Table 4.

[9] = target: T8, human CTGF (Homo sapiens, UniProt P29279, H83D); test: SPR binding kinetics and affinity, human CTGF; conditions: 25° C., 1:1 binding model
T8 construct: purchased Creative Biomart
T8 sequence (P29279 with tags, fused parts or gaps H83D): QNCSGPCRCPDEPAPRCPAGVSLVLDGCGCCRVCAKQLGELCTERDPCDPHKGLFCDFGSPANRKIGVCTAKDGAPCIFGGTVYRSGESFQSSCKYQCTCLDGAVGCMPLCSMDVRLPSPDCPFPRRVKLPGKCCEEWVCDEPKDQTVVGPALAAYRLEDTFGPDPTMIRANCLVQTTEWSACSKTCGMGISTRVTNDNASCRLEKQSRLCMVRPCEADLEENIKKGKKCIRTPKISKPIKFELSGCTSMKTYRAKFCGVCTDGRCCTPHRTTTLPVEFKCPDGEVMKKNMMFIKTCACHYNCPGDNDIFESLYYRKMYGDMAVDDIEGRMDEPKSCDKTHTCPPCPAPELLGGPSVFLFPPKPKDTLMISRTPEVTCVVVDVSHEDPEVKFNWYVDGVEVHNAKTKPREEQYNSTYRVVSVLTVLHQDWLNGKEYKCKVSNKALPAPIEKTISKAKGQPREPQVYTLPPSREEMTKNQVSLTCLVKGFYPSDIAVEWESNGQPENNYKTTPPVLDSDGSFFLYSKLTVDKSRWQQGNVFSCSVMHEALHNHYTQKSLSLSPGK
In short: (§8)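 Biacore SPR at 25 °C; CTGF either Fc-captured via anti-human IgG (HBS-EP+) or amine-coupled to CM5 (300–1100 RU). Muteins injected 180 s contact, 900–3600 s dissociation, 30 μL/min.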

[10] = target: T9, human CTGF (Homo sapiens, UniProt P29279); test: SPR binding kinetics and affinity, human CTGF; conditions: 25° C., 1:1 binding model
T9 construct: purchased Creative Biomart
T9 sequence (P29279 with tags, fused parts or gaps H83D): as above
In short: as §8

[11] = tested on: cynomolgus CTGF; test: SPR binding kinetics and affinity, cynomolgus CTGF; conditions: 25° C., 1:1 binding model
Chain of cynomolgus CTGF (as listed by the source): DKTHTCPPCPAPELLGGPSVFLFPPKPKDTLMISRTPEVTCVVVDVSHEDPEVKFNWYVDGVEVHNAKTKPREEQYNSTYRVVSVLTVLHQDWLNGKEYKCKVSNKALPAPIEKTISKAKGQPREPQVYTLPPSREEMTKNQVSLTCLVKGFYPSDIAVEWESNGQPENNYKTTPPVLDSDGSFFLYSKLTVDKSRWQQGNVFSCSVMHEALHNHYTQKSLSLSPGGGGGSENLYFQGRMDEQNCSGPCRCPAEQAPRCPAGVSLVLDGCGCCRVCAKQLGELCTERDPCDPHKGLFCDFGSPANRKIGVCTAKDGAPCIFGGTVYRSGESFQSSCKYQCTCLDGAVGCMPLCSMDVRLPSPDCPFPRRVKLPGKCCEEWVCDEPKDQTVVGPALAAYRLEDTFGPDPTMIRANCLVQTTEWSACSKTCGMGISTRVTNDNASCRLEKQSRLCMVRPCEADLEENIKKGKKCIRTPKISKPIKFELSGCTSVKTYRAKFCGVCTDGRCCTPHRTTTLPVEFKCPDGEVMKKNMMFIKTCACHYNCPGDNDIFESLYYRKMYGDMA
Method: as §3, §4, §5, §6, §7

[12] = target: T10, Murine CTGF (Mus musculus, UniProt P29268); test: SPR binding kinetics and affinity, murine CTGF; conditions: 25° C., 1:1 binding model
T10 construct: purchased Abbexa
T10 sequence (P29268 26-348): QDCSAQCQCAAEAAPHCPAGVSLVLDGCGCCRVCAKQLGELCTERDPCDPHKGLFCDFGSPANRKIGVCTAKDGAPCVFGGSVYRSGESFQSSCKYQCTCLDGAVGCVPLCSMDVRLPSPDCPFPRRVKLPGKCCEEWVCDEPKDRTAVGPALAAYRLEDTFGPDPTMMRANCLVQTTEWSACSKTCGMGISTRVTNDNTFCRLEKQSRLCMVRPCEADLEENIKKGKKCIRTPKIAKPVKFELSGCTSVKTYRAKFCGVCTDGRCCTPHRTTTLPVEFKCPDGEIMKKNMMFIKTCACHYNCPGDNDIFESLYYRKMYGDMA
In short: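 Targets either amine-coupled to CM5 chip (300–1100 RU; Fc-tagged human, untagged rat/murine) or Fc-captured via anti-human IgG; muteins injected 180 s contact, 900–3600 s dissociation, 30 μL/min, 25° C. Double-referenced sensorgrams fit to 1:1 model giving kon, koff and KD.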

B1: SEQ ID NO: 76: fusion protein comprising two CTGF-binding lipocalin muteins (protein)
chain: QDSTSDLIPAPPLSKVPLQQNFQDNQFQGKWYVVGLAGNAILREDKQPAKMFATIYELKEDKSYDVTSVRFEAKSCKYTIKTFVPGSQPGEFTAGYIKSAPGQTSTLVRVVSTNYNQHAMVFFKHVTQNREIFVITLYGRTKELTSELKENFIRFSKSLGLPENHIVFPVPIDQCIDGGGGGSGGGGSGGGGSQDSTSDLIPAPPLSKVPLQQNFQDNQFQGKWYVVGWAGNVKLREDKQPLKMSATIYELKEDKSYDVTEVVFEQKKCHYIIKTFVPGSQPGEFTAGDIKSPPGYTSSLVRVVSTNYNQHAMVFFKKVSQNREFFWITLYGRTKELTSELKENFIRFSKSLGLPENHIVFPVPIDQCIDG
modifications: fusion protein
[1]
  ELISA binding to huWISP-1: No binding
[2]
  ELISA binding to huCYR61: No binding
[3]
  ONSET MELTING: 63 °C
  TM: 73 °C
[4]
  ELISA binding to huWISP-2: No binding
[5]
  ELISA binding to huNOV: No binding
[6]
  ELISA binding to huWISP-3: No binding
[7]
  ELISA binding to HUMAN CTGF: Binding

B2: SEQ ID NO: 31: optimized CTGF-binding hNGAL lipocalin mutein (protein)
chain: QDSTSDLIPAPPLSKVPLQQNFQDNQFQGKWYVVGWAGNVKLREDKQPQKMSATIYELKEDKSYDVTEVVFEQKKCHYIIKTFVPGSQPGEFTAGDIKSPPGYTSSLVRVVSTNYNQHAMVFFKKVSQNREFFWITLYGRTKELTSELKENFIRFSKSLGLPENHIVFPVPIDQCIDG
modifications: lipocalin mutein
[8]
  Rat CTGF koff: 0.000423 s⁻¹
  Rat CTGF kon: 223000 M⁻¹ s⁻¹
[3]
  ONSET MELTING: 59 °C
  TM: 75 °C
[9]
  human CTGF kon: 195000 M⁻¹ s⁻¹
[10]
  human CTGF koff: 4.85e-05 s⁻¹
[11]
  cynomolgus CTGF koff: 7.31e-05 s⁻¹
  cynomolgus CTGF kon: 162000 M⁻¹ s⁻¹
[12]
  Murine CTGF koff: 0.000444 s⁻¹
  Murine CTGF kon: 281000 M⁻¹ s⁻¹
